# Assay results taken from the supplement of paper PMC10724198.
# ± gives the standard deviation of the averaged measurements.
# Tested on: Saccharomyces cerevisiae
# Test: protein stability index of tFT-peptide fusion (C-terminal peptide) (PSI (0-1 scale)); higher = more stable (slower turnover)
# Conditions: genetic background: wild type; temperature: 30 C
# 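Note: PSI is a weighted mean of sequencing reads over stability bins, variants kept only with over 10 reads, mCherry proximal and sfGFP distal, peptide attached via GGGS linker.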
row,Sequence,protein stability index
1,RRRPPPLPPPHL,0.63 ± 0.015
2,RRSGILGSSFVF,0.75 ± 0.047
3,RRSRTEVVAVGG,0.676 ± 0.017
4,RRSVMLISNETR,0.698 ± 0.038
5,RRTDHQRAVREI,0.731 ± 0.042
6,RRVFSAGTRCGI,0.761 ± 0.11
7,RSAVPSARASAD,0.6431 ± 0.0026
8,RSCPGSWFRLSV,0.699 ± 0.12
9,RSFPSPPASLLL,0.66 ± 0.062
10,RSGPLFPLSCPP,0.767 ± 0.026
11,RSGPRMNVNRTL,0.646 ± 0.11
12,RSGQEKEKWEER,0.701 ± 0.022
13,RSHSTSSETNFV,0.6885 ± 0.0024
14,RSKHNEDRVVYI,0.709 ± 0.093
15,RSLPLAPPLAPL,0.742 ± 0.029
16,RSPPAPPHSCPP,0.69 ± 0.14
17,RSRGARMPTTPT,0.684 ± 0.034
18,RSRGSRNGKWVW,0.703 ± 0.02
19,RSRRDTDFGLLI,0.717 ± 0.11
20,RSSDFASDRGWT,0.67 ± 0.028
21,RSSLYLDVVLSF,0.709 ± 0.097
22,RSSRRLAGPVSS,0.639 ± 0.06
23,RSSSLRRGIGQR,0.688 ± 0.071
24,RSTDKLLGLKKM,0.652 ± 0.073
25,RSTVFCSTFVHD,0.672 ± 0.014
26,RSVGPPTLPTHP,0.666 ± 0.023

row,Sequence,protein stability index
1,RSWCAGMAGRRR,0.6626 ± 0.0043
2,RSWGRVCFGGVV,0.657 ± 0.054
3,RTGTGTRTRPSR,0.701 ± 0.066
4,RTKENYKRRKEK,0.702 ± 0.12
5,RTLEIYRGLTNE,0.648 ± 0.094
6,RTPQLSVFDLGI,0.7957 ± 0.0039
7,RTRRGRIGEIGP,0.703 ± 0.037
8,RTRTGRPKSPLH,0.6354 ± 0.0052
9,RTSLGFSPLIHQ,0.6818 ± 0.0057
10,RTVTKGTTFKVR,0.671 ± 0.057
11,RTWGGKKHKKRK,0.716 ± 0.014
12,RVAWFSSNCFAV,0.571 ± 0.061
13,RVDFRLPVYLGI,0.61 ± 0.015
14,RVEGGWGEAWRE,0.803 ± 0.075
15,RVEGKNNKEVCI,0.742 ± 0.079
16,RVESRFSGTDSF,0.708 ± 0.041
17,RVGPLLLTAGPR,0.644 ± 0.029
18,RVGQINKFLPLE,0.682 ± 0.071
19,RVGSGCFVGIFC,0.577 ± 0.024
20,RVKGCYGPGSGI,0.685 ± 0.066
21,RVLGEGKCCIRV,0.6063 ± 0.0056
22,RVLRAELCLHEI,0.687 ± 0.065
23,RVLSAASATRMT,0.619 ± 0.013
24,RVLSQAGSYSLC,0.587 ± 0.019
25,RVLSWSGRQSWC,0.668 ± 0.045
26,RVNERNAEAGGD,0.641 ± 0.043

row,Sequence,protein stability index
1,RVPLFPIKMGLG,0.591 ± 0.035
2,RVPPSRLSLPLS,0.6951 ± 0.0043
3,RVRAITRKCGQY,0.656 ± 0.051
4,RVRASGIGRFVE,0.625 ± 0.033
5,RVRGTLMLRSYG,0.64 ± 0.037
6,RVSIPALKEIAS,0.737 ± 0.036
7,RVSLSHPDRCAG,0.7264 ± 0.0025
8,RVSRSCCATGEG,0.599 ± 0.019
9,RVSSAAGGSIDL,0.738 ± 0.1
10,RVSVRGLESGVC,0.665 ± 0.026
11,RVSWGSTRLSRA,0.6427 ± 0.0064
12,RVVMIYAQWCLP,0.623 ± 0.011
13,RVWEGGGGGDGC,0.664 ± 0.047
14,RVWEGGRGGDGC,0.676 ± 0.024
15,RVWERGGGGDGC,0.645 ± 0.049
16,RWGCHFWVGFVG,0.544 ± 0.046
17,RWIWTRESTFSN,0.705 ± 0.016
18,RWVGVGPEGGVA,0.678 ± 0.068
19,RYFCPVLGPVNF,0.652 ± 0.046
20,RYFSFNVSSCLD,0.767 ± 0.048
21,RYGYCVPNVMRS,0.778 ± 0.11
22,RYRRQESYVIIK,0.766 ± 0.13
23,SAACQRWGYLRV,0.68781 ± 0.00045
24,SAERLKIVNDRI,0.753 ± 0.055
25,SAFLRRFLFFQW,0.572 ± 0.035
26,SALPPSRLPRSP,0.713 ± 0.049

row,Sequence,protein stability index
1,SAMSFTSRGVRH,0.698 ± 0.011
2,SAPLLLPPLSSP,0.713 ± 0.023
3,SAPPPSPAPSPY,0.677 ± 0.023
4,SARDVPPPPLTP,0.733 ± 0.018
5,SASRSLFLSRSP,0.6703 ± 0.0023
6,SASWARRSLPIW,0.729 ± 0.045
7,SATIRDILHCRF,0.8435 ± 0.0021
8,SAVHRSVPMGGG,0.666 ± 0.032
9,SAVSVATVVWSV,0.705 ± 0.092
10,SCEERVGEKVMG,0.6398 ± 0.0014
11,SCFEFGALSSPI,0.753 ± 0.034
12,SCGWRGGWWVMG,0.691 ± 0.072
13,SCLPSDRLTYLP,0.714 ± 0.014
14,SCLRFCSFGSPF,0.757 ± 0.12
15,SCLYPTQILART,0.631 ± 0.017
16,SCPPRLVFPRPS,0.66 ± 0.034
17,SCRVSFLFFLFE,0.562 ± 0.016
18,SCTPEDGRVRYT,0.66 ± 0.048
19,SDCPYVYVRVRD,0.69 ± 0.02
20,SDDPPLSLVISL,0.754 ± 0.02
21,SDMCLGRVFCFL,0.63 ± 0.069
22,SDSPSAPPSAYH,0.62 ± 0.058
23,SDVCVYVIRDIG,0.565 ± 0.068
24,SDVFGGVLSFGF,0.6613 ± 0.0008
25,SEAKRMSGSSAN,0.635 ± 0.041
26,SEICGAPLARLR,0.707 ± 0.034

row,Sequence,protein stability index
1,SEILFRSSPFPI,0.721 ± 0.09
2,SELEADKRIKRK,0.739 ± 0.094
3,SEPADGRDRMAE,0.6885 ± 0.0054
4,SERNENKTGKVQ,0.747 ± 0.11
5,SESKGAMCQRNA,0.6475 ± 0.0054
6,SETMFRLVADIT,0.715 ± 0.011
7,SFACVYVPPALF,0.712 ± 0.025
8,SFCHWRFSFPKC,0.666 ± 0.04
9,SFFGYPCFLLSI,0.54 ± 0.026
10,SFFRFRIPLFPS,0.669 ± 0.065
11,SFFSVQIQFGLS,0.617 ± 0.012
12,SFFVTVAGPFQI,0.686 ± 0.012
13,SFGIGFFATRGF,0.676 ± 0.031
14,SFGLRCPASRGS,0.648 ± 0.052
15,SFGPQFLAPVFS,0.706 ± 0.031
16,SFGSVFGGRWCV,0.672 ± 0.035
17,SFKSCMCLFCGV,0.659 ± 0.034
18,SFLAHSFLPLPP,0.631 ± 0.069
19,SFLLPTLVRLSH,0.65 ± 0.022
20,SFLPPLFPHPPP,0.841 ± 0.031
21,SFLRTRPHAPLP,0.6363 ± 0.0021
22,SFLSLYRLTPGR,0.655 ± 0.048
23,SFLVLRGSGGKW,0.713 ± 0.082
24,SFLVSALASSLA,0.652 ± 0.019
25,SFNHAKPPLHPA,0.683 ± 0.03
26,SFNVFKINSITV,0.562 ± 0.019

row,Sequence,protein stability index
1,SFPHSFLFPLFP,0.751 ± 0.09
2,SFPLSPAFPSFL,0.744 ± 0.025
3,SFPPPLPPSPTP,0.697 ± 0.036
4,SFPRPTSALSLN,0.604 ± 0.075
5,SFPRYRWRAATE,0.6704 ± 0.0021
6,SFPSLLRPPHFS,0.706 ± 0.041
7,SFPVPFPRFFPP,0.714 ± 0.03
8,SFRDRHRRLCDL,0.596 ± 0.035
9,SFRFFVSGFVVL,0.531 ± 0.009
10,SFRLRSLVFGFF,0.597 ± 0.067
11,SFRQSRLKRRGY,0.672 ± 0.15
12,SFSACGEPVPPG,0.661 ± 0.0077
13,SFSFPFFFWGLL,0.592 ± 0.0061
14,SFSIPTCSVPLT,0.687 ± 0.096
15,SFSPLRLPPSLL,0.724 ± 0.049
16,SGAGVGWGCSSV,0.635 ± 0.047
17,SGAGVNWGVGWG,0.714 ± 0.029
18,SGALSDVCVMLL,0.652 ± 0.026
19,SGAPAQLSLSSL,0.6568 ± 0.0032
20,SGCPGPNVPRVP,0.705 ± 0.014
21,SGDGGVGHWVGG,0.676 ± 0.025
22,SGEVMGAMVLHE,0.773 ± 0.12
23,SGFFGFLLGAYG,0.5876 ± 0.0031
24,SGFLLVLRRPRE,0.655 ± 0.05
25,SGGGGWVVGGVA,0.663 ± 0.011
26,SGGTDMLALRVR,0.632 ± 0.062

row,Sequence,protein stability index
1,SGHRPPRVAVDS,0.66 ± 0.044
2,SGIWLKRVTMYR,0.7027 ± 0.0047
3,SGKGRRLVLGSS,0.6895 ± 0.0039
4,SGKVNNKEGKWK,0.686 ± 0.015
5,SGLAARFGLPIR,0.674 ± 0.016
6,SGLPALPRPVWP,0.491 ± 0.076
7,SGLPVPFSALRS,0.718 ± 0.049
8,SGLRQGRHVYPA,0.682 ± 0.011
9,SGPAVLPTFVSP,0.65 ± 0.077
10,SGPGGVGPTGGI,0.6585 ± 0.0055
11,SGPLPCPPLPAP,0.676 ± 0.016
12,SGRIASQACLIW,0.671 ± 0.045
13,SGRRRAPPAPSP,0.732 ± 0.037
14,SGRSQERMYARW,0.656 ± 0.012
15,SGRVRPNSRASP,0.698 ± 0.073
16,SGSAPFLRTSKL,0.685 ± 0.061
17,SGSPVFLDPPLS,0.698 ± 0.015
18,SGTSDDWWPGVA,0.785 ± 0.038
19,SGVCGRVGGGLR,0.622 ± 0.047
20,SGVLASSCPSSC,0.659 ± 0.016
21,SGVVGLGCVPWF,0.857 ± 0.2
22,SGWSVGVMGESG,0.627 ± 0.092
23,SGYKVYNSVHIL,0.602 ± 0.026
24,SHASTPSSRVIP,0.716 ± 0.01
25,SHICSFLGICHA,0.576 ± 0.031
26,SHIPRNLSPFSS,0.754 ± 0.056

row,Sequence,protein stability index
1,SHLAYVKWYIGD,0.6305 ± 0.0042
2,SHPAPGSPTSPS,0.67064 ± 0.00027
3,SHPPFPFAPPPR,0.674 ± 0.031
4,SHPPPPPHTPPS,0.736 ± 0.02
5,SHRTRPSQTPTQ,0.643 ± 0.05
6,SHSPPSPPLPPP,0.6773 ± 0.0042
7,SHTIVPNPLKLV,0.576 ± 0.019
8,SHTSPSTPPPSP,0.681 ± 0.0085
9,SICLLSAALPPP,0.708 ± 0.029
10,SIFSFCSNTWFL,0.747 ± 0.029
11,SIGACGEVTFGC,0.7083 ± 0.00078
12,SIIGRKVNGVSN,0.711 ± 0.0089
13,SIIIPATCEYLV,0.603 ± 0.013
14,SIKGLVRSIALN,0.638 ± 0.0064
15,SILFMYPARNAP,0.7177 ± 0.0028
16,SILRLRSVVPAE,0.6457 ± 0.0027
17,SIPLIMPLSDYV,0.675 ± 0.015
18,SIVGGVVRVLCG,0.603 ± 0.048
19,SKGARQRQPPDG,0.5983 ± 0.0041
20,SKGFVIMRAACF,0.572 ± 0.018
